Substitutions are numbered along the chain they refer to.
How the values were obtained:
[1] = biological target: T1, Wheat alpha-amylase pI 6.66 inhibitor (spot #1), P01085
T1 chain: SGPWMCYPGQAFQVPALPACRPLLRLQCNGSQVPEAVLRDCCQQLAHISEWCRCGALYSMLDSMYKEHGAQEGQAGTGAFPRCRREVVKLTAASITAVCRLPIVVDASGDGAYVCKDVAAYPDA

[2] = biological target: T2, Wheat alpha-amylase pI 5.23 inhibitor (spot #4), P01084
T2 chain: T1 chain with A19G, R25K, H47D, C52P, A70V, Q71S, R82S

[3] = biological target: wheat gliadin homolog of oat avenin (spot #2)
[4] = biological target: T3, Wheat alpha-amylase/trypsin inhibitor (spot #3), P16851
T3 chain: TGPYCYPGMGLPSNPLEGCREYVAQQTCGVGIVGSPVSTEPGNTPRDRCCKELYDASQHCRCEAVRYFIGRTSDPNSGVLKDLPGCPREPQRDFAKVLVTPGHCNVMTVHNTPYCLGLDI

B1: wheat thioredoxin h (WTRXh), 13.5-kDa protein encoded by the 384-bp wtrxh fragment (protein)
chain: MAASAATATATAAAVGAGEVISVHSLEQWTMQIEEANAAKKLVVIDFTASWCGPCRIMAPIFADLAKKFPAAVFLKVDVDELKPIAEQFSVEAMPTFLFMKEGDVKDRVVGAIKEELTTKVGLHAAQ
In the case of B1, the “redox state by mBBr/2D IEF/SDS-PAGE, homozygote overexpressing thioredoxin h vs. null segregant” value [1] is reported as “five proteins were observed to be more highly reduced in extracts of the homozygote (spots 1-5, FIG. 29)”, the “redox state by mBBr/2D IEF/SDS-PAGE, homozygote overexpressing thioredoxin h vs. null segregant” value [2] is reported as “five proteins were observed to be more highly reduced in extracts of the homozygote (spots 1-5, FIG. 29)” and the “redox state by mBBr/2D IEF/SDS-PAGE, homozygote overexpressing thioredoxin h vs. null segregant” value [3] is reported as “five proteins were observed to be more highly reduced in extracts of the homozygote (spots 1-5, FIG. 29)”. The “redox state by mBBr/2D IEF/SDS-PAGE, homozygote overexpressing thioredoxin h vs. null segregant” value [4] was “five proteins were observed to be more highly reduced in extracts of the homozygote (spots 1-5, FIG. 29)”.

Reference: patent publication US20030135878
